Here are results for twelve molecules from US20180346600A1 (AJOU UNIVERSITY INDUSTRY ACADEMIC COOPERATION FOUNDATION, published 2018).

Where a chain is given by its changes, count along the chain named. Names and notes keep the numbering of the source.

In assay [1] the target is T1, displayed FcCH3A, W-VT (K409W), on yeast cell surface (human, UniProt P0DOX5 227-449 = IgG part).
T1 construct: EU 226 and 229 counted from the entry's start at EU 225; also called W-VT CH3A chain (yeast)
T1 Fc: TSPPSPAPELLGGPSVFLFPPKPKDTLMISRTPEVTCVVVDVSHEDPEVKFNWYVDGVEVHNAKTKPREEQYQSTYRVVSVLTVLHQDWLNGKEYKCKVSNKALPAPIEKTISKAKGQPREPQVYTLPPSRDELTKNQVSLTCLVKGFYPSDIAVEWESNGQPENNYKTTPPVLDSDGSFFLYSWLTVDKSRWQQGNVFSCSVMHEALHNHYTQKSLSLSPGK
The assay is described as follows: flow cytometry histogram (PE, FL2-H) of diploid yeast: Flag-tagged secreted FcCH3B held on displayed FcCH3A, anti-Flag mouse mAb and PE anti-mouse antibody. Here is the method: Specifically, the diploid in which the expression of the heterodimeric heavy chain constant region was induced was reacted with an antibody recognizing flag-tag included in the secreted FcCH3B (anti-Flag mouse mAb, F3165) (Sigma-Aldrich) and an antibody conjugated with PE (phycoerythrin conjugated anti-mouse mAb, sc-3738) (Santa Cruz biotechnology), and a signal of PE was analyzed by flow cytometry.
(A flow cytometer gives signals particle by particle.)

For assay [2], the target named is T2, displayed FcCH3A, B168 (D399L/K409W), on yeast cell surface (human, UniProt P0DOX5 227-449 = IgG part).
T2 construct: also called B168 CH3A chain (yeast)
T2 Fc: T1 Fc with D175L
In words: flow cytometry of diploid yeast: MFI of Flag-tagged secreted FcCH3B held on displayed FcCH3A (anti-Flag mouse mAb and PE anti-mouse antibody), normalised to EW-RVT = 100 %.

Assay [3] addresses T3, displayed FcCH3A, B135 (D399L/K409W), on yeast cell surface (human, UniProt P0DOX5 227-449 = IgG part).
T3 construct: also called B135 CH3A chain (yeast)
T3 Fc: T1 Fc with D175L
Described as above.

The target in assay [4] is T4, displayed FcCH3A, A108 (K370E/K409W), on yeast cell surface (human, UniProt P0DOX5 227-449 = IgG part).
T4 construct: also called A108 CH3A chain (yeast)
T4 Fc: T1 Fc with K146E
Described as above.

The target in assay [5] is T5, displayed FcCH3A, B121 (D399E/K409W), on yeast cell surface (human, UniProt P0DOX5 227-449 = IgG part).
T5 construct: also called B121 CH3A chain (yeast)
T5 Fc: T1 Fc with D175E
The description is as above.

Assay [6] has as its target T6, displayed FcCH3A, A205 (E357D/S364W/K370E), on yeast cell surface (human, UniProt P0DOX5 227-449 = IgG part).
T6 construct: also called A205 CH3A chain (yeast)
T6 Fc: T1 Fc with E133D, S140W, K146E, W185K
Described as above. An excerpt:
(§1) FACS was sequentially performed four times. […] Table 9 below summarizes the mutation pairs introduced into individual clones selected from the respective LibA2 and LibB2 libraries.

For assay [7], the target named is T7, displayed FcCH3A, A210 (E357A/S364Y/K370E), on yeast cell surface (human, UniProt P0DOX5 227-449 = IgG part).
T7 construct: also called A210 CH3A chain (yeast)
T7 Fc: T1 Fc with E133A, S140Y, K146E, W185K
The assay is described as above.
Excerpt: as §1

Assay [8] addresses T8, displayed FcCH3A, A107 (K370E/K409W), on yeast cell surface (human, UniProt P0DOX5 227-449 = IgG part).
T8 construct: also called A107 CH3A chain (yeast)
T8 Fc: T1 Fc with K146E
The description is as above.

The target in assay [9] is T9, displayed FcCH3A, EW-RVT (K360E/K409W), on yeast cell surface (human, UniProt P0DOX5 227-449 = IgG part).
T9 construct: also called EW-RVT CH3A chain (yeast)
T9 Fc: T1 Fc with K136E
The assay is described as above.

For assay [10], the target named is T10, displayed FcCH3A, A146 (K370D/K409W), on yeast cell surface (human, UniProt P0DOX5 227-449 = IgG part).
T10 construct: also called A146 CH3A chain (yeast)
T10 Fc: T1 Fc with K146D
Described as above.

Assay [11] addresses T11, A107w/oW-VT (displayed FcCH3A on yeast cell surface).
T11 construct: also called A107w/oW-VT CH3A chain (yeast), K370E
T11 Fc: T1 Fc with K146E, W185K
Described as above.
Excerpt: as §1

The target in assay [12] is T12, displayed FcCH3A, A109 (K370M/K409W), on yeast cell surface (human, UniProt P0DOX5 227-449 = IgG part).
T12 construct: also called A109 CH3A chain (yeast)
T12 Fc: T1 Fc with K146M
The description is as above.

B1: secreted FcCH3B, W-VT (D399V/F405T), from yeast (other)
chain: T1 Fc with D175V, F181T, W185K
notes: also called W-VT CH3B chain (yeast); not shown: flag-tag
As to B1, in assay [1], the binding result is given as “binds”.

B2: secreted FcCH3B, B168 (K392G/K409M/D399V/F405T), from yeast (other)
chain: T1 Fc with K168G, D175V, F181T, W185M
notes: also called B168 CH3B chain (yeast); not shown: flag-tag
With B2, in assay [2], the binding result was “binds”.

B3: secreted FcCH3B, B135 (K392S/K409L/D399V/F405T), from yeast (other)
chain: T1 Fc with K168S, D175V, F181T, W185L
notes: also called B135 CH3B chain (yeast); not shown: flag-tag
On to B3, for which the binding result in assay [3] is “binds”.

B4: secreted FcCH3B, A108 (E357I/S364T/D399V/F405T), from yeast (other)
chain: T1 Fc with E133I, S140T, D175V, F181T, W185K
notes: also called A108 CH3B chain (yeast); not shown: flag-tag
For B4, in assay [4], the binding result is “binds”.

B5: secreted FcCH3B, B121 (K392E/D399V/F405T), from yeast (other)
chain: T1 Fc with K168E, D175V, F181T, W185K
notes: also called B121 CH3B chain (yeast); not shown: flag-tag
B5: in assay [5], the binding result is given as “binds”.

B6: secreted FcCH3B, A205 (E357N/K370R), from yeast (other)
chain: T1 Fc with E133N, K146R, W185K
notes: also called A205 CH3B chain (yeast); not shown: flag-tag
For B6, the binding result in assay [6] is reported as “binds”.

B7: secreted FcCH3B, A210 (E357N/K370H), from yeast (other)
chain: T1 Fc with E133N, K146H, W185K
notes: also called A210 CH3B chain (yeast); not shown: flag-tag
As for B7, the binding result in [7] was “binds”.

B8: secreted FcCH3B, A107 (E357N/D399V/F405T), from yeast (other)
chain: T1 Fc with E133N, D175V, F181T, W185K
notes: also called A107 CH3B chain (yeast); not shown: flag-tag
With B8, in assay [8], the binding result was “binds”.

B9: secreted FcCH3B, EW-RVT (Q347R/D399V/F405T), from yeast (other)
chain: T1 Fc with Q123R, D175V, F181T, W185K
notes: also called EW-RVT CH3B chain (yeast); not shown: flag-tag
As for B9, in [9], the binding result is listed as “binds”.

B10: secreted FcCH3B, A146 (E357M/D399V/F405T), from yeast (other)
chain: T1 Fc with E133M, D175V, F181T, W185K
notes: also called A146 CH3B chain (yeast); not shown: flag-tag
With B10, in [10], the binding result is on record as “binds”.

B11: A107w/oW-VT (secreted FcCH3B from yeast) (other)
secreted Fc chain (hinge-CH2-CH3B): T1 Fc with E133N, W185K
notes: also called A107w/oW-VT CH3B chain (yeast), E357N
As to B11, in assay [11], the binding result was “binds”.

B12: secreted FcCH3B, A109 (E357M/S364W/D399V/F405T), from yeast (other)
chain: T1 Fc with E133M, S140W, D175V, F181T, W185K
notes: also called A109 CH3B chain (yeast); not shown: flag-tag
B12: the binding result in assay [12] was “binds”.
